According to the RNAGym collection of RNA variant scans (doi:10.7554/elife.80360):

B1: HDV Ribozyme (parent)
chain: GGCCGGCAUGGUCCCAGCCUCCUCGCUGGCGCCGGCUGGGCAACAUUCCGAGGGGACCGUCCCCUCGGUAAUGGCGAAUGGGACCCA

Variants of: B1
Assay: self-cleavage, relative activity (ratio to wild type); higher = more cleavage; co-transcriptional

| Variant | self-cleavage |
| --- | --- |
| G28A A77U | 0.104 |
| U27G G76C | 1.14 |
| U27G G76A | 0.98 |
| U27G G76U | 0.855 |
| U27C G68C | 0.511 |
| U27C G68A | 0.697 |
| U27C C62U | 0.851 |
| U27C C62G | 0.615 |
| U27C C48G | 0.831 |
| U27G A83U | 0.791 |
| U27G A83G | 0.755 |
| U27A G54U | 0.845 |
| C26U G28U | 0.277 |
| U27A U79C | 0.201 |
| C26U U69C | 1.12 |
| C26U U69A | 1.11 |
| U27A C66G | 0.755 |
| U27A C66A | 0.886 |
| U27C C58A | 0.458 |
| U27C C58U | 0.539 |
| U27G U72G | 0.978 |
| C26U G39U | 0.936 |
| C26U G39A | 0.599 |
| C26U G39C | 0.475 |

| Variant | self-cleavage |
| --- | --- |
| C26U G53C | 1.04 |
| C26U G53A | 1.16 |
| C26U G53U | 1.22 |
| U27C G67A | 0.886 |
| U27C G67U | 0.798 |
| U27C G67C | 0.997 |
| C26U U60C | 0.95 |
| U27C A51C | 0.858 |
| U27C A51G | 0.914 |
| U27A U69C | 1.11 |
| U27A U69A | 0.831 |
| U27A U69G | 1.02 |
| U27G C57U | 0.987 |
| U27G C57G | 0.895 |
| U27G C57A | 1.22 |
| U27C G76A | 0.869 |
| U27C G76U | 0.883 |
| U27G G74C | 0.302 |
| U27A A83C | 0.739 |
| U27C G50C | 0.858 |
| U27A C36A | 0 |
| U27A C36U | 0.538 |
| U27G U65C | 0.965 |
| U27G U65G | 0.95 |

| Variant | self-cleavage |
| --- | --- |
| U27G U65A | 1.03 |
| U27A A71C | 1.03 |
| U27A A71G | 1.07 |
| U27C U65G | 0.831 |
| U27C U65A | 0.957 |
| U27A G39C | 0.0504 |
| U27A G39A | 0.356 |
| U27A U65A | 0.95 |
| U27C U69C | 0.931 |
| U27A A42U | 0 |
| U27A A42C | 0.0831 |
| U27A G38A | 0 |
| U27A G38U | 0.0426 |
| U27A G80C | 0.469 |
| U27G G55U | 1 |
| U27A C64U | 0.855 |
| C26U U37A | 0.462 |
| U27G G54U | 0.997 |
| U27G G54A | 0.578 |
| U27A U37A | 0.138 |
| U27A U37C | 0.578 |
| U27A U37G | 0.119 |
| G28A A51G | 0.0326 |
| G28A A51C | 0 |

| Variant | self-cleavage |
| --- | --- |
| U27G C36A | 0.0639 |
| U27G C36U | 0.322 |
| U27C C49G | 0.962 |
| U27C C49A | 0.776 |
| U27A C48A | 0.831 |
| U27A C48G | 1.09 |
| U27A G29C | 0.158 |
| U27A G29U | 0 |
| C26U G74C | 0.519 |
| C26U G74A | 0.717 |
| U27C G29U | 0.145 |
| U27A C57G | 0.8 |
| U27A C57U | 1.01 |
| U27A G53U | 0.798 |
| U27A G53A | 0.646 |
| U27G U47G | 1.27 |
| U27G U47A | 0.697 |
| U27G C66A | 0.532 |
| U27G C66U | 1.02 |
| U27C C63G | 0.639 |
| U27C C63A | 0.883 |
| U27G C85G | 1.29 |
| U27G C85U | 0.807 |
| U27G C85A | 0.831 |

| Variant | self-cleavage |
| --- | --- |
| U27C A43C | 0.172 |
| C26U G76A | 1.04 |
| C26U G76U | 0.963 |
| U27G A70G | 1.14 |
| G28A A45U | 0.128 |
| U27A C30A | 0.525 |
| U27A C30U | 0.677 |
| U27C C85A | 0.978 |
| U27C C85U | 1.04 |
| G28A A42G | 0.369 |
| U27C G31C | 0 |
| U27A C63U | 0.813 |
| U27A A43G | 0.237 |
| U27C G54C | 0.538 |
| C26U G59U | 0.881 |
| C26U G59C | 0.935 |
| U27G C86U | 1.15 |
| U27G C86A | 0.767 |
| G28A A70G | 0.032 |
| C26U G55A | 1.05 |
| C26U G55C | 0.954 |
| C26U G55U | 0.929 |
| U27G G38A | 0.128 |
| C26U U79C | 0.671 |

| Variant | self-cleavage |
| --- | --- |
| U27C U46G | 0.332 |
| U27C U46C | 0.138 |
| G28A C32G | 0 |
| G28A C32A | 0.234 |
| U27C A42U | 0.475 |
| U27A G81U | 0.502 |
| U27C U79G | 0.32 |
| U27C U79C | 0.101 |
| U27C U79A | 0.511 |
| U27G G68A | 0.858 |
| U27G G68U | 0.858 |
| U27C G82C | 0.356 |
| U27C G82A | 0.396 |
| U27G G82A | 0.534 |
| U27G C75U | 0.138 |
| U27C U60C | 0.677 |
| U27C U60G | 0.875 |
| C26U G73U | 0.502 |
| U27C A70G | 0.739 |
| U27C A70U | 0.72 |
| U27C C41G | 0.217 |
| U27C C41U | 0.604 |
| U27C C41A | 0.192 |
| U27A C75U | 0.0519 |

| Variant | self-cleavage |
| --- | --- |
| U27C U47G | 0.782 |
| U27C U47C | 0.511 |
| U27C U47A | 0.519 |
| U27A U72A | 0.266 |
| U27A U72G | 0.739 |
| C26U G34C | 0.224 |
| U27C G81C | 0.369 |
| U27C U37A | 0.0519 |
| U27G G81C | 0.277 |
| U27G G67A | 1.1 |
| U27C C86U | 0.745 |
| U27C C86A | 0.875 |
| U27C A78G | 0.227 |
| U27C A78U | 0.297 |
| U27C G59C | 0.751 |
| U27C G59A | 0.742 |
| U27A A70U | 0.985 |
| U27G G52C | 1.02 |
| C26U G40A | 0.885 |
| C26U G40C | 0.946 |
| U27C C33U | 0.453 |
| U27C C33G | 0.237 |
| U27C C66A | 0.59 |
